Measured values reported in publication PMC3260217.

Biological target: NP wt (Influenza A virus H1N1 (A/WSN/33), UniProt P15682 1-498)
Assay: SPR
Conditions: protein: recombinant; tags: C-terminal 6xHis; label: 5'-biotin; single strand

UUUGUUACACACACACACGCUGUG (ssRNA) [Flu1 RNA 24-mer] gave a Kd of 41 ± 7 nM.
